In patent US20050106141A1 (PROCTER AND GAMBLE, published 2005):

T1: LexA BD-HRt (mouse, UniProt P0A7C2 1-202; Q61645 490-1182)
T1 construct: domain: Lex A DNA BD;range 490-1182; also called BD-HRt(mouse); Lex A DNA BD-HRt
T1 sequence (looked up): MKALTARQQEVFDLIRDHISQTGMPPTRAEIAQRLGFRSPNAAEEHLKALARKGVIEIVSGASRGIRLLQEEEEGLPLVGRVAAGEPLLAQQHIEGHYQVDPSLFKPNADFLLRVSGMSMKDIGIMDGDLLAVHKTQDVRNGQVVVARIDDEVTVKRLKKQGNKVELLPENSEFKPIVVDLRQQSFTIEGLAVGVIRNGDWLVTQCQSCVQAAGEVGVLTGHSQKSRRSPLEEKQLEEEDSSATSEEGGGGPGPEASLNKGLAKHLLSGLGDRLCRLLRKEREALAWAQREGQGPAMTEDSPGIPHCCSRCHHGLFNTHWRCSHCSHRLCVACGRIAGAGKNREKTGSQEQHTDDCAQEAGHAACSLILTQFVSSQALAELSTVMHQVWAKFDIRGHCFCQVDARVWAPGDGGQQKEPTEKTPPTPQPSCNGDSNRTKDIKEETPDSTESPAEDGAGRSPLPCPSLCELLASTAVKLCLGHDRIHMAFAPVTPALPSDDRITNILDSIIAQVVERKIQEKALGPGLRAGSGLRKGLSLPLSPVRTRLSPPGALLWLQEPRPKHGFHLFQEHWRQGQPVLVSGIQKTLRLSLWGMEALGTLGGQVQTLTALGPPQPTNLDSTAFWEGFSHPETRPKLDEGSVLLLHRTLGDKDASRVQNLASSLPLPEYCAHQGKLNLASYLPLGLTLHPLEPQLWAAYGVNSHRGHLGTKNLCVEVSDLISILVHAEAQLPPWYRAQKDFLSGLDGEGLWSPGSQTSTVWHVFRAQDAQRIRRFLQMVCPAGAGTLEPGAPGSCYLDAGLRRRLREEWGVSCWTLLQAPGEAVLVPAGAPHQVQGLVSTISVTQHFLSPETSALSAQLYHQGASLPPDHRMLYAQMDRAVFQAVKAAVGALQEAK


Target: T1, LexA BD-HRt
Test: yeast two-hybrid library screen; number of positive clones with this identity
Text: Clontech Human Keratinocyte GAL4 cDNA library (complexity 2.5×10⁶) in pACT2 vector was used used to screen for HRt interacting proteins. A Leu⁻, Trp⁻ yeast strain with HIS3 and LACZ reporters for yeasts two hybrid interaction (strain L41) was first transformed with LexA BD-HRt palsmid) for Trp⁺ phenotype. The resulting L41/LexA BD-HR transformant was screened to ensure expression of LexA BD-HRt protein and also for lack of auto activation of the reporter genes HIS3 and LACZ. This strain was transformed with Keratinocyte AD-cDNA library and plated on Trp⁻Leu⁻His⁻ plate to select for clones with positive interaction. Colonies that appeared on selsctive plates were subsequently tested for LACZ expression on X-GAL plates. […] AD-plasmid was rescued from the 90 clones and retested for HRt bait dependance. […] The positive clones are expected to contain an AD-IP (interacting partner) that interacts with BD-HRt.

Row | Hits | Binder
1 | 3 | Homo Sapiens Inner Membrane Protein, Mitochondrial (Mitofilin) (other, UniProt Q16891 1-758, looked up, not shown: large carriers, Prey clone; extent of the clone unknown; also called AD-IP; BC002412) MLRACQLSGVTAAAQSCLCGKFVLRPLRPCRRYSTSGSSGLTTGKIAGAGLLFVGGGIGGTILYAKWDSHFRESVEKTIPYSDKLFEMVLGPAAYNVPLPKKSIQSGPLKISSVSEVMKESKQPASQLQKQKGDTPASATAPTEAAQIISAAGDTLSVPAPAVQPEESLKTDHPEIGEGKPTPALSEEASSSSIRERPPEEVAARLAQQEKQEQVKIESLAKSLEDALRQTASVTLQAIAAQNAAVQAVNAHSNILKAAMDNSEIAGEKKSAQWRTVEGALKERRKAVDEAADALLKAKEELEKMKSVIENAKKKEVAGAKPHITAAEGKLHNMIVDLDNVVKKVQAAQSEAKVVSQYHELVVQARDDFKRELDSITPEVLPGWKGMSVSDLADKLSTDDLNSLIAHAHRRIDQLNRELAEQKATEKQHITLALEKQKLEEKRAFDSAVAKALEHHRSEIQAEQDRKIEEVRDAMENEMRTQLRRQAAAHTDHLRDVLRVQEQELKSEFEQNLSEKLSEQELQFRRLSQEQVDNFTLDINTAYARLRGIEQAVQSHAVAEEEARKAHQLWLSVEALKYSMKTSSAETPTIPLGSAVEAIKANCSDNEFTQALTAAIPPESLTRGVYSEETLRARFYAVQKLARRVAMIDETRNSLYQYFLSYLQSLLLFPPQQLKPPPELCPEDINTFKLLSYASYCIEHGDLELAAKFVNQLKGESRRVAQDWLKEARMTLETKQIVEILTAYASAVGIGTTQVQPE
2 | 1 | Homo Sapiens Retinoic Acid Receptor Gamma-1 (receptor, UniProt P13631 1-454, looked up, not shown: large carriers, Prey clone; extent of the clone unknown; also called Human Retinoic Acid Receptor Gamma 1; AD-IP) MATNKERLFAAGALGPGSGYPGAGFPFAFPGALRGSPPFEMLSPSFRGLGQPDLPKEMASLSVETQSTSSEEMVPSSPSPPPPPRVYKPCFVCNDKSSGYHYGVSSCEGCKGFFRRSIQKNMVYTCHRDKNCIINKVTRNRCQYCRLQKCFEVGMSKEAVRNDRNKKKKEVKEEGSPDSYELSPQLEELITKVSKAHQETFPSLCQLGKYTTNSSADHRVQLDLGLWDKFSELATKCIIKIVEFAKRLPGFTGLSIADQITLLKAACLDILMLRICTRYTPEQDTMTFSDGLTLNRTQMHNAGFGPLTDLVFAFAGQLLPLEMDDTETGLLSAICLICGDRMDLEEPEKVDKLQEPLLEALRLYARRRRPSQPYMFPRMLMKITDLRGISTKGAERAITLKMEIPGPMPPLIREMLENPEMFEDDSSQPGPHPNASSEDEVPGGQGKGGLKSPA
3 | 1 | Homo Sapiens Protein Inhibitor of Activated STAT-3 (PIAS3) (other, UniProt Q9Y6X2 1-628, looked up, not shown: large carriers, Prey clone; extent of the clone unknown; also called AD-IP; BC030556) MAELGELKHMVMSFRVSELQVLLGFAGRNKSGRKHELLAKALHLLKSSCAPSVQMKIKELYRRRFPRKTLGPSDLSLLSLPPGTSPVGSPGPLAPIPPTLLAPGTLLGPKREVDMHPPLPQPVHPDVTMKPLPFYEVYGELIRPTTLASTSSQRFEEAHFTFALTPQQVQQILTSREVLPGAKCDYTIQVQLRFCLCETSCPQEDYFPPNLFVKVNGKLCPLPGYLPPTKNGAEPKRPSRPINITPLARLSATVPNTIVVNWSSEFGRNYSLSVYLVRQLTAGTLLQKLRAKGIRNPDHSRALIKEKLTADPDSEVATTSLRVSLMCPLGKMRLTVPCRALTCAHLQSFDAALYLQMNEKKPTWTCPVCDKKAPYESLIIDGLFMEILSSCSDCDEIQFMEDGSWCPMKPKKEASEVCPPPGYGLDGLQYSPVQGGDPSENKKKVEVIDLTIESSSDEEDLPPTKKHCSVTSAAIPALPGSKGVLTSGHQPSSVLRSPAMGTLGGDFLSSLPLHEYPPAFPLGADIQGLDLFSFLQTESQHYGPSVITSLDEQDALGHFFQYRGTPSHFLGPLAPTLGSSHCSATPAPPPGRVSSIVAPGGALREGHGGPLPSGPSLTGCRSDIISLD
4 | 1 | Homo Sapiens Annexin A1 (Lipocortin 1 or P35) (other, UniProt P04083 1-346, looked up, not shown: large carriers, Prey clone; extent of the clone unknown; also called AD-IP; BC001275) MAMVSEFLKQAWFIENEEQEYVQTVKSSKGGPGSAVSPYPTFNPSSDVAALHKAIMVKGVDEATIIDILTKRNNAQRQQIKAAYLQETGKPLDETLKKALTGHLEEVVLALLKTPAQFDADELRAAMKGLGTDEDTLIEILASRTNKEIRDINRVYREELKRDLAKDITSDTSGDFRNALLSLAKGDRSEDFGVNEDLADSDARALYEAGERRKGTDVNVFNTILTTRSYPQLRRVFQKYTKYSKHDMNKVLDLELKGDIEKCLTAIVKCATSKPAFFAEKLHQAMKGVGTRHKALIRIMVSRSEIDMNDIKAFYQKMYGISLCQAILDETKGDYEKILVALCGGN
5 | 1 | Homo Sapiens Insulin-like Growth Factor Binding Domain Protein 6 (other, UniProt P24592 28-240, looked up, not shown: large carriers, Prey clone; extent of the clone unknown; also called AD-IP) RCPGCGQGVQAGCPGGCVEEEDGGSPAEGCAEAEGCLRREGQECGVYTPNCAPGLQCHPPKDDEAPLRALLLGRGRCLPARAPAVAEENPKESKPQAGTARPQDVNRRDQQRNPGTSTTPSQPNSAGVQDTEMGPCRRHLDSVLQQLQTEVYRGAQTLYVPNCDHRGFYRKRQCRSSQGQRRGPCWCVDRMGKSLPGSPDGNGSSSCPTGSSG
6 | 7 | Homo Sapiens Thyroid Hormone Receptor Alpha (receptor, UniProt P10827-2 1-410, looked up, not shown: large carriers, Prey clone; extent of the clone unknown; also called AD-IP; BC000261) MEQKPSKVECGSDPEENSARSPDGKRKRKNGQCSLKTSMSGYIPSYLDKDEQCVVCGDKATGYHYRCITCEGCKGFFRRTIQKNLHPTYSCKYDSCCVIDKITRNQCQLCRFKKCIAVGMAMDLVLDDSKRVAKRKLIEQNRERRRKEEMIRSLQQRPEPTPEEWDLIHIATEAHRSTNAQGSHWKQRRKFLPDDIGQSPIVSMPDGDKVDLEAFSEFTKIITPAITRVVDFAKKLPMFSELPCEDQIILLKGCCMEIMSLRAAVRYDPESDTLTLSGEMAVKREQLKNGGLGVVSDAIFELGKSLSAFNLDDTEVALLQAVLLMSTDRSGLLCVDKIEKSQEAYLLAFEHYVNHRKHNIPHFWPKLLMKVTDLRMIGACHASRFLHMKVECPTELFPPLFLEVFEDQEV
7 | 3 | Homo Sapiens Nucleoporin 160 Kda (other, UniProt Q12769 1-1436, looked up, not shown: large carriers, Prey clone; extent of the clone unknown; also called Homo Sapiens Nucleoporin 160 kD (NUP160); AD-IP) MLHLSAAPPAPPPEVTATARPCLCSVGRRGDGGKMAAAGALERSFVELSGAERERPRHFREFTVCSIGTANAVAGAVKYSESAGGFYYVESGKLFSVTRNRFIHWKTSGDTLELMEESLDINLLNNAIRLKFQNCSVLPGGVYVSETQNRVIILMLTNQTVHRLLLPHPSRMYRSELVVDSQMQSIFTDIGKVDFTDPCNYQLIPAVPGISPNSTASTAWLSSDGEALFALPCASGGIFVLKLPPYDIPGMVSVVELKQSSVMQRLLTGWMPTAIRGDQSPSDRPLSLAVHCVEHDAFIFALCQDHKLRMWSYKEQMCLMVADMLEYVPVKKDLRLTAGTGHKLRLAYSPTMGLYLGIYMHAPKRGQFCIFQLVSTESNRYSLDHISSLFTSQETLIDFALTSTDIWALWHDAENQTVVKYINFEHNVAGQWNPVFMQPLPEEEIVIRDDQDPREMYLQSLFTPGQFTNEALCKALQIFCRGTERNLDLSWSELKKEVTLAVENELQGSVTEYEFSQEEFRNLQQEFWCKFYACCLQYQEALSHPLALHLNPHTNMVCLLKKGYLSFLIPSSLVDHLYLLPYENLLTEDETTISDDVDIARDVICLIKCLRLIEESVTVDMSVIMEMSCYNLQSPEKAAEQILEDMITIDVENVMEDICSKLQEIRNPIHAIGLLIREMDYETEVEMEKGFNPAQPLNIRMNLTQLYGSNTAGYIVCRGVHKIASTRFLICRDLLILQQLLMRLGDAVIWGTGQLFQAQQDLLHRTAPLLLSYYLIKWGSECLATDVPLDTLESNLQHLSVLELTDSGALMANRFVSSPQTIVELFFQEVARKHIISHLFSQPKAPLSQTGLNWPEMITAITSYLLQLLWPSNPGCLFLECLMGNCQYVQLQDYIQLLHPWCQVNVGSCRFMLGRCYLVTGEGQKALECFCQAASEVGKEEFLDRLIRSEDGEIVSTPRLQYYDKVLRLLDVIGLPELVIQLATSAITEAGDDWKSQATLRTCIFKHHLDLGHNSQAYEALTQIPDSSRQLDCLRQLVVVLCERSQLQDLVEFPYVNLHNEVVGIIESRARAVDLMTHNYYELLYAFHIYRHNYRKAGTVMFEYGMRLGREVRTLRGLEKQGNCYLAALNCLRLIRPEYAWIVQPVSGAVYDRPGASPKRNHDGECTAAPTNRQIEILELEDLEKECSLARIRLTLAQHDPSAVAVAGSSSAEEMVTLLVQAGLFDTAISLCQTFKLPLTPVFEGLAFKCIKLQFGGEAAQAEAWAWLAANQLSSVITTKESSATDEAWRLLSTYLERYKVQNNLYHHCVINKLLSHGVPLPNWLINSYKKVDAAELLRLYLNYDLLEEAVDLVSEYVDAVLGKGHQYFGIEFPLSATAPMVWLPYSSIDQLLQALGENSANSHNIALSQKILDKLEDYQQKVDKATRDLLYRRTL
8 | 1 | Homo Sapiens Keratin 5 (other, UniProt P13647 1-590, looked up, not shown: large carriers, Prey clone of the human keratinocyte AD-cDNA library; whole protein named, extent of the clone unknown; also called AD-IP; BC024292) MSRQSSVSFRSGGSRSFSTASAITPSVSRTSFTSVSRSGGGGGGGFGRVSLAGACGVGGYGSRSLYNLGGSKRISISTSGGSFRNRFGAGAGGGYGFGGGAGSGFGFGGGAGGGFGLGGGAGFGGGFGGPGFPVCPPGGIQEVTVNQSLLTPLNLQIDPSIQRVRTEEREQIKTLNNKFASFIDKVRFLEQQNKVLDTKWTLLQEQGTKTVRQNLEPLFEQYINNLRRQLDSIVGERGRLDSELRNMQDLVEDFKNKYEDEINKRTTAENEFVMLKKDVDAAYMNKVELEAKVDALMDEINFMKMFFDAELSQMQTHVSDTSVVLSMDNNRNLDLDSIIAEVKAQYEEIANRSRTEAESWYQTKYEELQQTAGRHGDDLRNTKHEISEMNRMIQRLRAEIDNVKKQCANLQNAIADAEQRGELALKDARNKLAELEEALQKAKQDMARLLREYQELMNTKLALDVEIATYRKLLEGEECRLSGEGVGPVNISVVTSSVSSGYGSGSGYGGGLGGGLGGGLGGGLAGGSSGSYYSSSSGGVGLGGGLSVGGSGFSASSGRGLGVGFGSGGGSSSSVKFVSTTSSSRKSFKS
